According to patent EP3782644A1:

Biological target: ErbB2-Domain4 protein (human) (UniProt P04626)
Experiment: indirect ELISA, ErbB2-Domain4 protein coated at 100 ng/well, antibody in serial dilution, absorbance at 450 nm

- EC50: 100 nM
B1: anti-ErbB2 monoclonal antibody 19G9 (antibody, V domains shown)
VH: LEQSGPGILQPSQTLSLICSFSGFSLSTSGMGVSWIRQPSGKGLEWLAHIYWDDDKRYNPSLKSRLTISKDTSSKQVFLKITSVDTADTATYYCALFAYYNYDGTVDYWGLGTSVTVSS
VL: DIVMTQTPSSLAVSVGEKVTMSCKSSQSLLHSRTRKNYLAWYQQKLGQSPKLLIYWASTRESGVPDRFTGSGSGTDFTLTISSVEAEDLAVYYCKQSYNLYTFGGGTKLEIK
